Data from PMC8579703.

Target: neonatal Fc Receptor, FcRn (UniProt P55899)
Experiment: SPR

ACE2-IgG4-Fc fusion construct 1 (ACE2 Q18-G732 wildtype fused to IgG4-Fc S228P) (from UniProt Q9BYF1 18-732)
Kd: 2.9 µM

ACE2-IgG4-Fc fusion construct 3 (ACE2 Q18-G732 H374N/H378N fused to IgG4-Fc S228P) (from UniProt Q9BYF1 18-732)
Kd: 3.9 µM
